Source: the supplement of paper PMC9732359
± gives the uncertainty stated by the source.

Assay: protein stability index of a GFP-peptide fusion (yeast GPS) (PSI 1-4); higher = more stable; sorted into four equal gates, so the index is relative within each strain
Summary of the method: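 Peptides tiling yeast proteins in 17-residue segments were fused downstream of GFP, with Cherry expressed from the same plasmid. As a pooled library in yeast, mid-log cultures grown in leucine-free medium were sorted into four equal gates by GFP/Cherry fluorescence ratio. Gate plasmids were PCR-amplified and Illumina-sequenced, and barcodes linked reads to strains. Each peptide received a protein stability index equal to the sum of each gate's read frequency times its gate number.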

Sequence | protein stability index (doa10∆) | protein stability index (pdr5∆) | protein stability index (san1∆) | protein stability index (ubr1∆)
GLESLLNIGLGAVGLKD [YCS4] | 2.77 ± 0.1 | 2.61 ± 0.15 | 2.89 ± 0.13 | 2.68 ± 0.065
EHHSSVKYASPNLNMKY [FAS2] | 3.17 ± 0.068 | 3 ± 0.06 | 2.94 ± 0.054 | 2.92 ± 0.04
GSYNAFEPASRLQGIKL [COR1] | 2.95 ± 0.053 | 3.16 ± 0.068 | 3.15 ± 0.063 | 2.99 ± 0.073
ELGEIIDEDIGNNVQEN [RMP1] | – | – | 3.02 ± 0.26 | –
FGNSLSNTVNANNYSSN [YDL088C/ASM4] | 2.94 ± 0.084 | 3 ± 0.09 | 3.08 ± 0.072 | 3.18 ± 0.056
LFLRGDSVIVVLKTPVE [SMD2] | 2.63 ± 0.12 | 2.42 ± 0.093 | 2.78 ± 0.083 | 2.38 ± 0.14
RDKKEKKQAQKQTKLRK [SMB1] | 3.43 ± 0.072 | 3.53 ± 0.072 | 3.25 ± 0.076 | 3.4 ± 0.045
PDGSFEDWSVEELIVDL [RPO26] | 3.42 ± 0.17 | 2.06 ± 0.16 | 3 ± 0.13 | 2.84 ± 0.081
EYNRLKVQDAIEEEIFD [LIN1] | 2.83 ± 0.057 | 2.31 ± 0.05 | 2.85 ± 0.057 | 2.93 ± 0.055
RFKSQFLYVLIPAGIYW [QCR8] | 1.75 ± 0.14 | 2.15 ± 0.069 | 2.07 ± 0.12 | 2.37 ± 0.092
KVEKRVLGLTILRGEQI [SMB1] | 1.69 ± 0.078 | 2.15 ± 0.12 | 2 ± 0.17 | 1.95 ± 0.091
AAAGGDAAAEEEKEEEA [RPP1B] | 3.32 ± 0.21 | 3.46 ± 0.16 | 3.16 ± 0.2 | 3.08 ± 0.23
IDRNSTILYLNVFHGLC [IRR1] | 2.41 ± 0.14 | 1.52 ± 0.084 | 2.14 ± 0.25 | 2.78 ± 0.17
GPENALNVYHYFGENSS [YJL039C/NUP192] | 2.05 ± 0.032 | 2.05 ± 0.042 | 2.06 ± 0.053 | 2.65 ± 0.031
DKVSSCFPQYVNSKQGA [NNF1] | 2.07 ± 0.088 | 2.23 ± 0.091 | 2.11 ± 0.12 | 2.95 ± 0.092
HTVFTSVNKNKRQAYAV [RPL4A] | – | 1.17 ± 0.2 | – | –
ENPNFWRQFGNRMQISP [GRR1] | 3.14 ± 0.13 | 3.02 ± 0.13 | 2.93 ± 0.11 | 2.76 ± 0.12
GGDTCSSDGALCMDSSY [POP1] | 2.24 ± 0.054 | 2.54 ± 0.051 | 1.83 ± 0.082 | 2.27 ± 0.036
KPKNTKENLSKSSWRQE [SIR4] | 1.35 ± 0.076 | 1.21 ± 0.049 | 1.21 ± 0.1 | 1.5 ± 0.049
TSLLDSLISVLEASLNS [YJL039C/NUP192] | 1.94 ± 0.083 | 1.77 ± 0.09 | 1.87 ± 0.19 | 1.58 ± 0.08
FELSFTGAPPYYYNTKI [YMR129W/POM152] | 2.75 ± 0.089 | 1.99 ± 0.12 | 2.66 ± 0.15 | 3.21 ± 0.12
NVDQTKTQCPNYDTCGG [RPC11] | 3.48 ± 0.13 | 3.15 ± 0.18 | 3.06 ± 0.08 | 3.21 ± 0.093
TQKTELEIDNKDSVTEC [SIR4] | 1.74 ± 0.061 | 3.15 ± 0.12 | 2.78 ± 0.14 | 2.5 ± 0.085
VTALEVLSLGRPNLPTH [RGR1] | 2.93 ± 0.14 | – | 2.18 ± 0.14 | 2.33 ± 0.079
QGRDTSKLPDPERWLPL [SRP72] | 3.33 ± 0.16 | 2.86 ± 0.21 | 3.31 ± 0.13 | 2.93 ± 0.17
AGVQGSKVSKQQAKGAF [RPL24B] | 3.08 ± 0.15 | 3.21 ± 0.11 | 3.19 ± 0.055 | 3.21 ± 0.081
FLHESSFDSIDHSWFLL [CSI1] | 2.67 ± 0.075 | 2.93 ± 0.061 | 2.48 ± 0.072 | 2.87 ± 0.044

Sequence | protein stability index (doa10∆) | protein stability index (pdr5∆) | protein stability index (san1∆) | protein stability index (ubr1∆)
LSLTAFTKNEEKLLKEL [ITC1] | 2.24 ± 0.081 | 2.29 ± 0.072 | 2.29 ± 0.08 | 2.44 ± 0.26
AAEFRYKYGYDMPCDVL [SCL1] | 2.64 ± 0.078 | 2.79 ± 0.057 | 2.69 ± 0.054 | 2.33 ± 0.059
SKFSKQQAKGAFQKVAA [RPL24A] | 2.21 ± 0.065 | 2.7 ± 0.078 | 2.9 ± 0.05 | 2.54 ± 0.05
NKTVNEAAKPSLSFGSG [YJL041W/NSP1] | 3.5 ± 0.13 | 3.01 ± 0.083 | 2.08 ± 0.21 | 3.21 ± 0.078
IRVLFKENGQLIGAATK [SEC65] | 1.97 ± 0.068 | 2.12 ± 0.11 | 2.17 ± 0.12 | 2.38 ± 0.079
PFSFSSATSTTEQTKSK [YLR335W/NUP2] | 2.99 ± 0.06 | 2.99 ± 0.058 | 2.85 ± 0.075 | 2.86 ± 0.054
WREIIEKVRDYENSISK [IRR1] | 2.86 ± 0.076 | 2.59 ± 0.085 | 2.39 ± 0.061 | 2.67 ± 0.047
LQGISTLRPRQYATVSK [RPL34A] | 2.59 ± 0.13 | 2.75 ± 0.13 | – | –
IVMQLRKCCNHPYLFEG [ISW2] | 2.78 ± 0.087 | 2.53 ± 0.11 | 2.74 ± 0.069 | 2.78 ± 0.11
NALDKLRNNLNSLIEEI [YCG1] | 3.22 ± 0.12 | 3.26 ± 0.1 | 2.27 ± 0.21 | 3.08 ± 0.092
TDRITRLFIKPGQKMSL [BRN1] | 3.22 ± 0.11 | 2.9 ± 0.11 | 2.97 ± 0.14 | 3.17 ± 0.1
NFLLPDIFGDSELFDEW [ISW2] | 2.25 ± 0.059 | 2.46 ± 0.076 | 2.79 ± 0.07 | 2.72 ± 0.059
LIIDDPSKGQSLSKISQ [RPP1] | 2.77 ± 0.07 | 2.81 ± 0.063 | 3.04 ± 0.055 | 3.02 ± 0.056
FGTGQSTFGFNNSAPNN [YJL041W/NSP1] | 3.17 ± 0.046 | 3.29 ± 0.051 | 3.1 ± 0.04 | 3.3 ± 0.036
SSQLNKLTDEQSSLDVA [SIR3] | 2.66 ± 0.088 | 2.93 ± 0.081 | 2.65 ± 0.09 | 2.97 ± 0.056
DTVSWFKQKYDADVLDK [RPL11A] | 2.06 ± 0.044 | 1.74 ± 0.044 | 1.64 ± 0.077 | 1.97 ± 0.039
KHLWDQKSLAALKKSRS [RPC17] | 2.75 ± 0.12 | 2.97 ± 0.072 | 2.92 ± 0.083 | 2.81 ± 0.07
NSINKTTVPFKESDDPS [POP1] | 2.5 ± 0.067 | 2.93 ± 0.06 | 2.71 ± 0.072 | 2.36 ± 0.065
SVVKKEDNKYAIAGNST [RGR1] | 3.1 ± 0.084 | 2.63 ± 0.072 | 3.02 ± 0.054 | 2.92 ± 0.054
QRETMKERKLRENIAML [SMC1] | 3.42 ± 0.24 | 3.01 ± 0.19 | 3.04 ± 0.12 | 3.42 ± 0.066
EEEIKKFDSRIRGILMA [PRP8] | 2.71 ± 0.066 | 2.81 ± 0.074 | 2.69 ± 0.052 | 3.02 ± 0.051
NRLSNPQKNLLLKGPAS [YOR098C/NUP1] | 2.96 ± 0.049 | 3.05 ± 0.038 | 2.68 ± 0.054 | 2.94 ± 0.056
VGRRAANLRVLNSYWVN [RPL15A] | 1.97 ± 0.062 | 1.71 ± 0.072 | 1.91 ± 0.11 | 1.69 ± 0.07
HYVSTSKISQMAQNKTH [YLR018C/POM34] | 1.56 ± 0.032 | 2.02 ± 0.035 | 1.78 ± 0.058 | 1.87 ± 0.027
KEHEPCIIFMDEVDAIG [RPT4] | 1.85 ± 0.049 | 1.92 ± 0.059 | 1.79 ± 0.12 | 1.98 ± 0.072
HNVFSKEQTIQLPSKFT [RPN14] | 2.41 ± 0.11 | 2.79 ± 0.085 | 2.43 ± 0.12 | 2.64 ± 0.099
